Measurements as given in the Immune Epitope Database (IEDB).

How the values were obtained:
Experiment in all cases: IEDB peptide-MHC binding, purified MHC/competitive/radioactivity; filed as Kd, often an IC50 or EC50 that approximates it; ≥ and ≤ were set here for values at or beyond the usual limits of such assays
[1] = molecular target: HLA-A*03:01
[2] = molecular target: HLA-A*11:01
[3] = molecular target: HLA-A*31:01
[4] = molecular target: HLA-A*33:01
[5] = molecular target: HLA-A*68:01
[6] = source organism: SARS coronavirus Tor2
[7] = source organism: Dengue virus 4 Philippines/H241/1956
[8] = source organism: Vaccinia virus WR
[9] = source organism: Dengue virus 3 Martinique/1243/1999
[10] = source organism: Dengue virus 1 Brazil/97-11/1997
[11] = source organism: Mammarenavirus lassaense
[12] = source organism: Lassa virus Josiah
[13] = source organism: Vaccinia virus Copenhagen
[14] = source organism: Mammarenavirus guanaritoense
[15] = source organism: Dengue virus 2 Jamaica/1409/1983
[16] = source organism: Mammarenavirus brazilense
[17] = source organism: Triticum aestivum
[18] = source organism: Dengue virus 1 Nauru/West Pac/1974

Row | Sequence | Kd [1, 8] [nM] | Kd [2, 8] [nM] | Kd [3, 8] [nM] | Kd [4, 8] [nM] | Kd [5, 8] [nM] | further results
1 | AMPNLYKMQR |  |  |  |  |  | Kd [1, 6]: 1040 nM; Kd [2, 6]: 1010 nM; Kd [3, 6]: 240 nM; Kd [4, 6]: 11700 nM; Kd [5, 6]: 1970 nM
2 | ATTILTPMLR |  |  |  |  |  | Kd [2, 7]: 129 nM; Kd [3, 7]: 77.3 nM; Kd [5, 7]: 284 nM
3 | AVNKSNKPLK | 1090 | 147 | 1560 | ≥ 47000 | 5960 | 
4 | CIRNASKFVY | 17500 | 19900 | ≥ 70000 | ≥ 70000 | ≥ 37000 | 
5 | CMTSCCSCLK |  |  |  |  |  | Kd [1, 6]: 62.7 nM; Kd [2, 6]: 80.8 nM; Kd [3, 6]: 800 nM; Kd [4, 6]: 1860 nM; Kd [5, 6]: 40.2 nM
6 | CVDIFTEGK | 3750 | 78.3 | 16300 | ≥ 77700 | 18.6 | 
7 | DFLKDDTLSK | 15000 | 5760 | ≥ 70000 | 8000 | 10700 | 
8 | DFRDYQSYR | ≥ 78000 | 13600 | 74.5 | 0.837 | 1020 | 
9 | DFWKLVDRER |  |  |  |  |  | Kd [4, 9]: 1.51 nM
10 | DIFMRDWNSK | ≥ 70100 | 4230 | 12400 | 548 | 74.2 | 
11 | DILSIIDAK | 876 | 428 | ≥ 77900 | 896 | 49.7 | 
12 | DLLFNEKLK | 1920 | 188 | 8150 | 744 | 29.2 | 
13 | DQAMTQMYK |  |  |  |  |  | Kd [1, 6]: 2560 nM; Kd [2, 6]: 866 nM; Kd [3, 6]: 6970 nM; Kd [4, 6]: 8450 nM; Kd [5, 6]: 121 nM
14 | DSDVSLIIEY | 4820 | 2730 | 10300 | 4690 | 205 | 
15 | DSYTQMCDHR |  |  |  |  |  | Kd [4, 10]: 335 nM
16 | DVSLSAYIIR | 2410 | 609 | 387 | 1120 | 240 | 
17 | EIARIENEMK | 5610 | 3630 | ≥ 70000 | 7050 | 7.11 | 
18 | ENAVWDQCK |  |  |  |  |  | Kd [1, 11]: ≥ 78000 nM; Kd [2, 11]: ≥ 77900 nM; Kd [3, 11]: ≥ 77900 nM; Kd [4, 11]: ≥ 38000 nM; Kd [5, 11]: 1480 nM
19 | EWLWRTLGR |  |  |  |  |  | Kd [4, 9]: 8.26 nM
20 | FFASFYYIWK |  |  |  |  |  | Kd [1, 6]: 285 nM; Kd [2, 6]: 243 nM; Kd [3, 6]: 734 nM; Kd [4, 6]: 60.9 nM; Kd [5, 6]: 86.2 nM
21 | FIQWTGGNIR | ≥ 29800 | ≥ 22000 | 3860 | 2050 | 112 | 
22 | FLWTQSLRR |  |  |  |  |  | Kd [1, 12]: 40.7 nM; Kd [2, 12]: 723 nM; Kd [3, 12]: 2050 nM; Kd [4, 12]: 2900 nM; Kd [5, 12]: 320 nM
23 | FQGKFKKIVK |  |  |  |  |  | Kd [1, 6]: 9460 nM; Kd [2, 6]: 2880 nM; Kd [3, 6]: 13400 nM; Kd [4, 6]: ≥ 24700 nM; Kd [5, 6]: ≥ 24200 nM
24 | FSSLRREHIK | 1020 | 277 | 144 | 17400 | 94.1 | 

Row | Sequence | Kd [1, 8] [nM] | Kd [2, 8] [nM] | Kd [3, 8] [nM] | Kd [4, 8] [nM] | Kd [5, 8] [nM] | further results
25 | GFNTLKPIFK |  |  |  |  |  | Kd [1, 6]: 140 nM; Kd [2, 6]: 105 nM; Kd [3, 6]: 1830 nM; Kd [4, 6]: 19600 nM; Kd [5, 6]: 1960 nM
26 | GLYNHNNTTY | 21 | 75.5 | 7950 | 14200 | 938 | 
27 | GSSKGNCAIK | 25 | 26.1 | 3480 | ≥ 29100 | 23.1 | 
28 | GVRVRVAVNK | 52.2 | 840 | 12100 | ≥ 70000 | 2190 | 
29 | HIIDSFNIR | 1680 | 149 | 1.12 | 732 | 0.448 | 
30 | HVCNATDFWR | 6760 | 450 | 8.14 | 383 | 37.9 | 
31 | IIPALFEPER |  |  |  |  |  | Kd [5, 10]: 76.7 nM
32 | IISIRPRVTK | 55.5 | 125 | 425 | 5690 | 180 | 
33 | ILAALFMYY | 0.175 | 0.309 | 6400 | 16000 | 36.3 | 
34 | ILCFTIKRK |  |  |  |  |  | Kd [1, 6]: 1000 nM; Kd [2, 6]: 7710 nM; Kd [3, 6]: 6680 nM; Kd [4, 6]: ≥ 45000 nM; Kd [5, 6]: 17200 nM
35 | ILEYLYIMR | 1570 | 1090 | 97.6 | 426 | 303 | 
36 | ILNFLDWIK |  |  |  |  |  | Kd [1, 13]: 189 nM; Kd [2, 13]: 155 nM; Kd [3, 13]: 427 nM; Kd [4, 13]: 1290 nM; Kd [5, 13]: 158 nM
37 | ISAEKTPIR | ≥ 78000 | 6020 | ≥ 41700 | ≥ 77700 | 275 | 
38 | ITSTKTIEY | 122 | 434 | 15100 | ≥ 20900 | 1730 | 
39 | IVTMMKYCSY | 127 | 26.8 | 31.6 | 235 | 41.5 | 
40 | KCSDHYLCLR |  |  |  |  |  | Kd [1, 14]: 4760 nM; Kd [2, 14]: ≥ 44800 nM; Kd [3, 14]: 140 nM; Kd [4, 14]: 5780 nM; Kd [5, 14]: ≥ 70100 nM
41 | KFAEESYTY | ≥ 78000 | 16500 | 13500 | ≥ 77700 | ≥ 38700 | 
42 | KKKTPRMCTR |  |  |  |  |  | Kd [3, 15]: 768 nM
43 | KLILAEYIR | 8070 | 15200 | 68.1 | 9560 | 2090 | 
44 | KLRPRWLDAR |  |  |  |  |  | Kd [3, 10]: 0.403 nM
45 | KSIENKHQR | 12600 | 29.4 | 1.55 | 1080 | 100 | 
46 | KTSSVARLR |  |  |  |  |  | Kd ([2]; source organism: Lymphocytic choriomeningitis virus (strain Armstrong)): 72.8 nM
47 | LIKNAQTPR |  |  |  |  |  | Kd [3, 7]: 13.6 nM
48 | LIKTILASY | 568 | 7870 | 7440 | 18700 | 10300 | 

Row | Sequence | Kd [1, 8] [nM] | Kd [2, 8] [nM] | Kd [3, 8] [nM] | Kd [4, 8] [nM] | Kd [5, 8] [nM] | further results
49 | LITGNMSFR |  |  |  |  |  | Kd [4, 15]: 1310 nM; Kd [5, 15]: 26.2 nM
50 | LLLTSSQQK |  |  |  |  |  | Kd [1, 15]: 15.5 nM
51 | LLVKMINHLK | 258 | 400 | 5420 | ≥ 67500 | 776 | 
52 | LNTPYCNYTK |  |  |  |  |  | Kd [1, 16]: 15300 nM; Kd [2, 16]: 10800 nM; Kd [3, 16]: 6410 nM; Kd [4, 16]: 32 nM; Kd [5, 16]: 695 nM
53 | LQQHNIVHGK |  |  |  |  |  | Kd [1, 17]: 1160 nM; Kd [2, 17]: 100 nM; Kd [3, 17]: 2420 nM; Kd [4, 17]: ≥ 70000 nM; Kd [5, 17]: ≥ 47900 nM
54 | LTSMKYFVK |  |  |  |  |  | Kd [1, 6]: 223 nM; Kd [2, 6]: 19.9 nM; Kd [3, 6]: 74.9 nM; Kd [4, 6]: 939 nM; Kd [5, 6]: 234 nM
55 | LTTLSRTSK |  |  |  |  |  | Kd [2, 15]: 214 nM
56 | LVAPSYGMR |  |  |  |  |  | Kd [5, 7]: 3.84 nM
57 | LVYIFEPEK | 382 | 24.9 | ≥ 21100 | ≥ 77700 | 130 | 
58 | NIQKITVFNK | 47.4 | 5.8 | 3.89 | 1200 | 30.5 | 
59 | PVYLMTLMK |  |  |  |  |  | Kd [1, 7]: 3.91 nM; Kd [2, 7]: 196 nM
60 | QAAVLMGLGK |  |  |  |  |  | Kd [5, 7]: 60.7 nM
61 | RASLIPDATH |  |  |  |  |  | Kd [2, 12]: ≥ 59100 nM; Kd [3, 12]: 1980 nM; Kd [4, 12]: ≥ 50700 nM; Kd [5, 12]: 19600 nM
62 | RMCTREEFTR |  |  |  |  |  | Kd [3, 15]: 5.72 nM; Kd [4, 15]: 654 nM
63 | RMIVGKNER |  |  |  |  |  | Kd [3, 9]: 16.1 nM
64 | RSTPFNMLKR |  |  |  |  |  | Kd [3, 15]: 1390 nM
65 | SLLTCAKFK |  |  |  |  |  | Kd [1, 10]: 21 nM
66 | STYGWNIVK |  |  |  |  |  | Kd [1, 9]: 4.75 nM
67 | TAKLRWFVER |  |  |  |  |  | Kd [3, 10]: ≥ 28400 nM; Kd [4, 10]: 34.2 nM
68 | TTILDVDLR |  |  |  |  |  | Kd [5, 7]: 35.8 nM
69 | VTLFFLSGR |  |  |  |  |  | Kd [3, 18]: 7490 nM; Kd [4, 18]: 98 nM
70 | VVRPPFNMLK |  |  |  |  |  | Kd [1, 7]: 4.44 nM; Kd [2, 7]: 70.9 nM
71 | VVYDAKFEK |  |  |  |  |  | Kd [1, 10]: 7.01 nM; Kd [2, 10]: 42.4 nM
